Experimental data as given in US20220289810A1.

Biological target: bovine FSH hormone receptor expressed on HEK 293T cells (bovine) (UniProt P35376)
Assay: cell-based or functional assay

UniProt P35376, sequence (P35376 18-695): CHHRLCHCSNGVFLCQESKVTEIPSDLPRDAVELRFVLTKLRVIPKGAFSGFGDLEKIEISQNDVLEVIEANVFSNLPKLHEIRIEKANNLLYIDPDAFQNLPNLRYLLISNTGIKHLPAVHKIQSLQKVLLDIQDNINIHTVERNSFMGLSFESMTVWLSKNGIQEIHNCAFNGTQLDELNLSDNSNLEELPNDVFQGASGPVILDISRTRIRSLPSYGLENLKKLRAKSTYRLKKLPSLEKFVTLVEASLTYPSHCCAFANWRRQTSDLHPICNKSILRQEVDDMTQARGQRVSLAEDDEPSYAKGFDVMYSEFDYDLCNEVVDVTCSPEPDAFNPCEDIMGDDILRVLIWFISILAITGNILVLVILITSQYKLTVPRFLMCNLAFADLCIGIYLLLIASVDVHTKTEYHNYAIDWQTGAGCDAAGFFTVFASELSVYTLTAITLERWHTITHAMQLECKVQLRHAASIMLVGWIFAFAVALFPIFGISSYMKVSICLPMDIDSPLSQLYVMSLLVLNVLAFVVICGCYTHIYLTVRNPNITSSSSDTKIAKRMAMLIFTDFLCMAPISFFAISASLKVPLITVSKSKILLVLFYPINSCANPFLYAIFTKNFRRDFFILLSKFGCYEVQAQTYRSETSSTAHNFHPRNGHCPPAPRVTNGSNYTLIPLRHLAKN

Substance	biological activity in vitro by stimulation of luciferase activity [IU/mg]	Estimated potency in vitro (sample 5G) [IU/mg]	in vitro FSH activity (CRE-luciferase reporter, HEK 293T cells with bovine FSH receptor); affinity purified construct #5 from transiently transfected CHO cells [IU]
recombinant single chain equine chorionic gonadotropin BetaCTP-CTP-Alpha (CONSTRUCT #4) (ligand)	13300		
recombinant single chain equine chorionic gonadotropin CTP-BetaCTP-CTP-Alpha (CONSTRUCT #6) (ligand)	4770		
recombinant single chain equine chorionic gonadotropin NTP-BetaCTP-CTP-Alpha (CONSTRUCT #5) (ligand)	4010	6200	61
